# B1: DVD465 (bispecific antibody, human IgG1, kappa)
# heavy: not shown
# light: DIQMTQSPSSLSASVGDRVTITCRASQDVSTAVAWYQQKPGKAPKLLIYSASFLYSGVPSRFSGSGSGTDFTLTISSLQPEDFATTYYCQQSYTGTVTFGQGTKVEIKRTVAAPDIQMTQSPSSLSASVGDRVTITCRASQDVSTAVAWYQQKPGKAPKLLIYSASFLYSGVPSRFSGSGSGTDFTLTISSLQPEDFATYYCQQSYTTPPTFGQGTKVEIKRTVAAPSVFIFPPSDEQLKSGTASVVCLLNNFYPREAKVQWKVDNALQSGNSQESVTEQDSKDSTYSLSSTLTLSKADYEKHKVYACEVTHQGLSSPVTKSFNRGEC
# notes: DVD-Ig; N-term; VD AB015 (DLL4), C-term; VD AB070 (VEGF); HC linker short, LC linker short; also called DVD465H; DVD465L
# B2: DVD477 (bispecific antibody, human IgG1, kappa, L234A L235A)
# heavy: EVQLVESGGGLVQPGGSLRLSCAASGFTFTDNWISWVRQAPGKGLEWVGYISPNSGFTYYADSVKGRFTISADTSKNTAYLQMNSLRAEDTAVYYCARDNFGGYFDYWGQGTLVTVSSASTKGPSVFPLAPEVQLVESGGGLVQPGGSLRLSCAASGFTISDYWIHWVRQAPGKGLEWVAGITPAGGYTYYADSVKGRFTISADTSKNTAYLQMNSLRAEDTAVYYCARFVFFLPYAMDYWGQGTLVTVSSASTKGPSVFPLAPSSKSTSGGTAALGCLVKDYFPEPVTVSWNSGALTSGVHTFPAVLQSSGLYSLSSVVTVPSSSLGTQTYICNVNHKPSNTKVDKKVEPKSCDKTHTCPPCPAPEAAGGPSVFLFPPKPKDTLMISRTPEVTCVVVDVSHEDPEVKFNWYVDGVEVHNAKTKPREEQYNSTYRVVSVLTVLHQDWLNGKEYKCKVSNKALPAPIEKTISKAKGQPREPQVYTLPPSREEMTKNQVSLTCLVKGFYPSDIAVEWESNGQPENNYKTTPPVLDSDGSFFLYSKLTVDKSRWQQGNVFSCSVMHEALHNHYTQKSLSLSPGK
# light: B1 light
# notes: DVD-Ig; N-term; VD AB015 (DLL4), C-term; VD AB070 (VEGF); HC linker long, LC linker short; also called DVD477H; DVD477L
# B3: DVD534 (bispecific antibody, human IgG1, kappa, lambda, L234A L235A)
# heavy: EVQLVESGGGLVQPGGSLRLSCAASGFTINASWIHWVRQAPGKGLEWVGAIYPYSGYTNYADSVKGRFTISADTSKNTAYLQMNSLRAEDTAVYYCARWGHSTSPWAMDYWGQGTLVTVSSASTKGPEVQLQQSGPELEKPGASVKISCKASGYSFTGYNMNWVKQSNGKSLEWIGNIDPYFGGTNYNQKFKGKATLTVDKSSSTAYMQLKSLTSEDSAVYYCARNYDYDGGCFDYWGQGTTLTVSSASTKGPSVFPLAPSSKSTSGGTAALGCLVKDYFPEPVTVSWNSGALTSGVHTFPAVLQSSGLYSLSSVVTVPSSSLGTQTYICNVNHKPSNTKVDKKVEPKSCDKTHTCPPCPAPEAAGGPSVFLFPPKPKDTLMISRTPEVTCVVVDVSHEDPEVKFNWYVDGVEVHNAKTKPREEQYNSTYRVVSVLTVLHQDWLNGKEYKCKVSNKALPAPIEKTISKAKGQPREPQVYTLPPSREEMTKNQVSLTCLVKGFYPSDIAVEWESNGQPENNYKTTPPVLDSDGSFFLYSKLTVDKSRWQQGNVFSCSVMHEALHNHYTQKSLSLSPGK
# light: DIQMTQSPSSLSASVGDRVTITCRASQVIRRSLAWYQQKPGKAPKLLIYAASNLASGVPSRFSGSGSGTDFTLTISSLQPEDFATYYCQQSNTSPLTFGQGTKVEIKRTVAAPSVFIFPPQAVVTQESALTTSPGETVTLTCRSSTGAVTTSNYANWVQEKPDHLFTGLIGGTNNRAPGVPARFSGSLIGDKAALTITGAQTEDEAIYFCALWYSNHWVFGGGTKLTVLGQPKAAPSVTLFPPSSEELQANKATLVCLISDFYPGAVTVAWKADSSPVKAGVETTTPSKQSNNKYAASSYLSLTPEQWKSHRSYSCQVTHEGSTVEKTVAPTECS
# notes: DVD-Ig; N-term; VD AB071 (VEGF), C-term; VD AB073 (DLL4); HC linker short, LC linker long; also called DVD534H; DVD534L
# B4: DVD443 (bispecific antibody, human IgG1, kappa)
# heavy: not shown
# light: DIVMTQSPDSLAVSLGERATISCRASESVDNYGISFMKWFQQKPGQPPKLLIYAASNQGSGVPDRFSGSGSGTDFTLTISSLQAEDVAVYYCQQSKEVPWTFGGGTKVEIKRTVAAPDIQMTQSPSSLSASVGDRVTITCRASQDVSTAVAWYQQKPGKAPKLLIYSASFLYSGVPSRFSGSGSGTDFTLTISSLQPEDFATYYCQQSYTTPPTFGQGTKVEIKRTVAAPSVFIFPPSDEQLKSGTASVVCLLNNFYPREAKVQWKVDNALQSGNSQESVTEQDSKDSTYSLSSTLTLSKADYEKHKVYACEVTHQGLSSPVTKSFNRGEC
# notes: DVD-Ig; N-term; VD AB069 (DLL4), C-term; VD AB070 (VEGF); HC linker short, LC linker short; also called DVD443H; DVD443L
# B5: DVD498 (bispecific antibody, human IgG1, kappa)
# heavy: not shown
# light: DIQMTQSPSSLSASVGDRVTITCRASQVIRRSLAWYQQKPGKAPKLLIYAASNLASGVPSRFSGSGSGTDFTLTISSLQPEDFATYYCQQSNTSPLTFGQGTKVEIKRTVAAPSVFIFPPDIQMTQSSSYLSVSLGGRVTITCKASDHINNWLAWYQQKPGNAPRLLISGATSLETGVPSRFSGSGSGKDYTLSITSLQTEDVATYYCQQYWSIPLTFGAGTKLELKRTVAAPSVFIFPPSDEQLKSGTASVVCLLNNFYPREAKVQWKVDNALQSGNSQESVTEQDSKDSTYSLSSTLTLSKADYEKHKVYACEVTHQGLSSPVTKSFNRGEC
# notes: DVD-Ig; N-term; VD AB071 (VEGF), C-term; VD AB072 (DLL4); HC linker long, LC linker long; also called DVD498H; DVD498L
# B6: DVD510 (bispecific antibody, human IgG1, kappa)
# heavy: not shown
# light: B5 light
# notes: DVD-Ig; N-term; VD AB071 (VEGF), C-term; VD AB072 (DLL4); HC linker short, LC linker long; also called DVD510H; DVD510L
# B7: DVD492 (bispecific antibody, human IgG1, kappa)
# heavy: not shown
# light: DIQMTQSPSSLSASVGDRVTITCRASQVIRRSLAWYQQKPGKAPKLLIYAASNLASGVPSRFSGSGSGTDFTLTISSLQPEDFATYYCQQSNTSPLTFGQGTKVEIKRTVAAPDIQMTQSSSYLSVSLGGRVTITCKASDHINNWLAWYQQKPGNAPRLLISGATSLETGVPSRFSGSGSGKDYTLSITSLQTEDVATYYCQQYWSIPLTFGAGTKLELKRTVAAPSVFIFPPSDEQLKSGTASVVCLLNNFYPREAKVQWKVDNALQSGNSQESVTEQDSKDSTYSLSSTLTLSKADYEKHKVYACEVTHQGLSSPVTKSFNRGEC
# notes: DVD-Ig; N-term; VD AB071 (VEGF), C-term; VD AB072 (DLL4); HC linker short, LC linker short; also called DVD492H; DVD492L
# B8: DVD504 (bispecific antibody, human IgG1, kappa)
# heavy: not shown
# light: B7 light
# notes: DVD-Ig; N-term; VD AB071 (VEGF), C-term; VD AB072 (DLL4); HC linker long, LC linker short; also called DVD504H; DVD504L
# B9: DVD471 (bispecific antibody, human IgG1, kappa, L234A L235A)
# heavy: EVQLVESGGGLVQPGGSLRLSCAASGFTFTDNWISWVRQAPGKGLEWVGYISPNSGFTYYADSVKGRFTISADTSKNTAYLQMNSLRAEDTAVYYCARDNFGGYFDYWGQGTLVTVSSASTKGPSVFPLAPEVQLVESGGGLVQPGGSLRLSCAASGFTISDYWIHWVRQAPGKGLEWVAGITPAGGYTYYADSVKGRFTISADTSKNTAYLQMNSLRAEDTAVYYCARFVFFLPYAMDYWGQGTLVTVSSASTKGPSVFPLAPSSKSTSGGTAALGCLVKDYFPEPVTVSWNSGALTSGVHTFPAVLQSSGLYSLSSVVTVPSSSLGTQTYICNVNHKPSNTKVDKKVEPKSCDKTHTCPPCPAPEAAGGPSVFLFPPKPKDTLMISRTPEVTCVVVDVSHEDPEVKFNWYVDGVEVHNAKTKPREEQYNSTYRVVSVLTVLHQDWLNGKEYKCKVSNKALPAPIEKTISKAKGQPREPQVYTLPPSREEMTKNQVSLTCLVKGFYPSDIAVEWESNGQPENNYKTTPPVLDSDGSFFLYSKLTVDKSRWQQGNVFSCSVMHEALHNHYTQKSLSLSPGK
# light: DIQMTQSPSSLSASVGDRVTITCRASQDVSTAVAWYQQKPGKAPKLLIYSASFLYSGVPSRFSGSGSGTDFTLTISSLQPEDFATTYYCQQSYTGTVTFGQGTKVEIKRTVAAPSVFIFPPDIQMTQSPSSLSASVGDRVTITCRASQDVSTAVAWYQQKPGKAPKLLIYSASFLYSGVPSRFSGSGSGTDFTLTISSLQPEDFATYYCQQSYTTPPTFGQGTKVEIKRTVAAPSVFIFPPSDEQLKSGTASVVCLLNNFYPREAKVQWKVDNALQSGNSQESVTEQDSKDSTYSLSSTLTLSKADYEKHKVYACEVTHQGLSSPVTKSFNRGEC
# notes: DVD-Ig; N-term; VD AB015 (DLL4), C-term; VD AB070 (VEGF); HC linker long, LC linker long; also called DVD471H; DVD471L
# B10: DVD483 (bispecific antibody, human IgG1, kappa)
# heavy: not shown
# light: B9 light
# notes: DVD-Ig; N-term; VD AB015 (DLL4), C-term; VD AB070 (VEGF); HC linker short, LC linker long; also called DVD483H; DVD483L
# B11: DVD528 (bispecific antibody, human IgG1, lambda)
# heavy: not shown
# light: DIQMTQSPSSLSASVGDRVTITCRASQVIRRSLAWYQQKPGKAPKLLIYAASNLASGVPSRFSGSGSGTDFTLTISSLQPEDFATYYCQQSNTSPLTFGQGTKVEIKRTVAAPQAVVTQESALTTSPGETVTLTCRSSTGAVTTSNYANWVQEKPDHLFTGLIGGTNNRAPGVPARFSGSLIGDKAALTITGAQTEDEAIYFCALWYSNHWVFGGGTKLTVLGQPKAAPSVTLFPPSSEELQANKATLVCLISDFYPGAVTVAWKADSSPVKAGVETTTPSKQSNNKYAASSYLSLTPEQWKSHRSYSCQVTHEGSTVEKTVAPTECS
# notes: DVD-Ig; N-term; VD AB071 (VEGF), C-term; VD AB073 (DLL4); HC linker long, LC linker short; also called DVD528H; DVD528L
# Target: T1, VEGF (UniProt P15692-4 27-191)
# T1 construct: Bought reagent; also called vascular endothelial growth factor
# Assay: SPR (Biacore), DVD-Ig captured, VEGF in solution
# T1 sequence (P15692 other isoform, or with tags, fused parts or gaps limits assumed): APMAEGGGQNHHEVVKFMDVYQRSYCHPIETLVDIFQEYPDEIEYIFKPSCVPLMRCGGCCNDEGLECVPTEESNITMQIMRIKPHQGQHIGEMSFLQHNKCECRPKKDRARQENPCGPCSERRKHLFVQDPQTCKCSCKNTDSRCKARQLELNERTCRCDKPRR
Kd [nM],koff [s⁻¹],kon [M⁻¹ s⁻¹],Binder
1.19,0.000414,348000,B1
1.02,0.000254,249000,B2
0.449,0.000168,374000,B3
1.71,0.000267,157000,B4
0.176,2.85e-05,162000,B5
0.0733,1.2e-05,164000,B6
0.0499,7.6e-06,152000,B7
0.000941,1.52e-07,162000,B8
0.917,0.000232,253000,B9
0.963,0.000872,905000,B10
0.413,0.00016,388000,B11
